Drawing on paper PMC8878332, this text covers Kd for 1 substance.

This assay deals with Human plasminogen (human). The assay can be described thus: ELISA; plasminogen immobilised on plate wells (1 ug in 100 uL PBS), blocked with 1% gelatin; AdcA 0-1 uM in PBS, 1.5 h at 37 C; bound AdcA detected with rabbit anti-AdcA serum; apparent KD from the fit to total binding saturation (GraphPad Prism); MntC run as control; EACA (0.1-10 mM) or NaCl (25-800 mM) added in further panels.

For the substance “Staphylococcus aureus zinc transport protein AdcA, recombinant full-length protein (natural protein)”, the Kd is 45.1 nM.
